Patent publication US20160228502A1 (UNIVERSITY OF MARYLAND BALTIMORE, published 2016)
Where no end group is shown, it is not given here.

B1: junctophilin-1 (JPH1), native, rabbit skeletal muscle SR vesicles (other, UniProt Q9GKY8 1-662, looked up)
chain: MTGGRFDFDDGGTYCGGWEEGKAHGHGICTGPKGQGEYSGSWSHGFEVVGGYTWPSGNTYQGYWAQGKRHGLGVETKGKWMYRGEWSHGFKGRYGVRQSLCTPARYEGTWSNGLQDGYGVETYGDGGTYQGQWAGGMRHGYGVRQSVPYGMATVIRSPLRTSLASLRSEQSNGSVLHDAAAAADTPTGTRGGFVLNFHADAELAGKKKGGLFRRGSLLGSMKLRKSESKSSISSKRSSVRSDAAMSRISSSDANSTISFGDVDCDFCPVEDHVDATTTETYMGEWKNDKRNGFGISERSNGMKYEGEWANNKRHGYGCTVFPDGSKEEGKYKNNILVRGIRKQLIPIRNTKTREKVDRAIEGAQRAAAMARTKVEIANSRTAHARAKADAADQAALAARQECDIARAVARELSPDFYQPGPDYIKQRLQEGVDAKENPEEKVPAKPPTPKESPHFYRKGTTPPGSPEASPKYSRSPQPSPPKPAKKQNPSSGARLNQDKRGVAEEQVTAIVNKPLTSKAPTKEVGAAVSQSKYSGRHHVPNPSNGELHSQYHGYYVKLHAPQHPPVDAEDDDRSSPSSSALVHKPSPNKWSPPKSVTKPVAKESKAEPKAKKSELAIPKNPASNDSCPSMEREANSGPNSVMIVLVMLLNIGLAILFVHFLT
B2: sarco(endo)plasmic reticulum Ca^2+-ATPase 1 (SERCA1) (enzyme)
chain: MEAAHSKSTEECLAYFGVSETTGLTPDQVKRHLEKYGHNELPAEEGKSLWELVIEQFEDLLVRILLLAACISFVLAWFEEGEETITAFVEPFVILLILIANAIVGVWQERNAENAIEALKEYEPEMGKVYRADRKSVQRIKARDIVPGDIVEVAVGDKVPADIRILSIKSTTLRVDQSILTGESVSVIKHTEPVPDPRAVNQDKKNMLFSGTNIAAGKALGIVATTGVSTEIGKIRDQMAATEQDKTPLQQKLDEFGEQLSKVISLICVAVWLINIGHFNDPVHGGSWIRGAIYYFKIAVALAVAAIPEGLPAVITTCLALGTRRMAKKNAIVRSLPSVETLGCTSVICSDKTGTLTTNQMSVCKMFIIDKVDGDFCSLNEFSITGSTYAPEGEVLKNDKPIRSGQFDGLVELATICALCNDSSLDFNETKGVYEKVGEATETALTTLVEKMNVFNTEVRNLSKVERANACNSVIRQLMKKEFTLEFSRDRKSMSVYCSPAKSSRAAVGNKMFVKGAPEGVIDRCNYVRVGTTRVPMTGPVKEKILSVIKEWGTGRDTLRCLALATRDTPPKREEMVLDDSSRFMEYETDLTFVGVVGMLDPPRKEVMGSIQLCRDAGIRVIMITGDNKGTAIAICRRIGIFGENEEVADRAYTGREFDDLPLAEQREACRRACCFARVEPSHKSKIVEYLQSYDEITAMTGDGVNDAPALKKAEIGIAMGSGTAVAKTASEMVLADDNFSTIVAAVEEGRAIYNNMKQFIRYLISSNVGEVVCIFLTAALGLPEALIPVQLLWVNLVTDGLPATALGFNPPDLDIMDRPPRSPKEPLISGWLFFRYMAIGGYVGAATVGAAAWWFMYAEDGPGVTYHQLTHFMQCTEDHPHFEGLDCEIFEAPEPMTMALSVLVTIEMCNALNSLSENQSLMRMPPWVNIWLLGSICLSMSLHFLILYVDPLPMIFKLKALDLTQWLMVLKISLPVIGLDEILKFIARNYLEDPEDERRK
notes: One entry covers native rabbit SERCA1 (SR vesicles) and untagged recombinant rabbit SERCA1 (COS7/HEK293 extracts and microsomes); The assay field of each row says which source was used; also called SERCA1-pcDNA3.1

Legend:
[1] = biological target: B2; assay: cell-based or functional assay
[2] = biological target: B2; assay: coIP with antibodies to JPH1 from rabbit SR vesicles
Protocol: CoIP experiments were performed as described in (60), with preparations of SR vesicles isolated by the method of Eletr and Inesi (61, 62) from rabbit skeletal muscle from the back and hind limb (Pel-Freez, Rogers, Ark.), or from crude membrane extracts of COS7 cells prepared as described (59, 63). For the latter, COS7 cells were harvested in PBS at 48 h following transfection, collected by centrifugation, frozen in liquid N₂ and stored at −80° C. until needed. Briefly, pellets were homogenized with 30 strokes of a glass Dounce homogenizer in resuspension buffer (0.25 M sucrose, 10 mM Tris-HCl, pH 7.5, 20 mM CaCl₂, 3 mM 2-mercaptoethanol, 150 mM KCl), and solubilized with an equal volume of lysis buffer (40 mM HEPES-NaOH, pH 7.5, 300 mM NaCl, 2 mM EDTA, 1% Tween 20). SR vesicles were prepared for coIP by the same methods for resuspension and solubilization. The muscle and cell extracts were pre-cleared with 50 μL uncoated Dynabeads. The pre-cleared extracts were mixed with antibody-coated Dynabeads (5 ug antibody/50 uL beads) and incubated at 4° C. for 4 h. […] Proteins in the samples were separated by SDS-PAGE and analyzed via immunoblot as described (64).
The interaction between SERCA1 and sAnk1 was first analyzed by co-immunoprecipitation (coIP), performed with SR vesicles prepared from rabbit skeletal muscle (see Methods). […]

[3] = biological target: Maltose Binding Protein (MBP) alone (UniProt P0AEX9 27-392 = MBP); assay: blot overlay on rabbit SR vesicle proteins
Protocol: A FLAG empty vector was used as controls. […] 7B. Amylose resin bound to bacterially expressed sAnk1₂₉₋₁₅₅-MBP fusion protein was incubated with COS7 extracts transfected to express SERCA1. MBP protein alone was used as a control. […] Ponceau staining was used as a loading control (top panel). 7C. SR vesicle preparations were used for blot overlay assays. Blots were first overlaid with sAnk1₂₉₋₁₅₅-MBP or MBP protein alone, followed by incubation with antibodies to MBP. […] Ponceau staining was used as a loading control (right panel).
The blot overlay assay was performed as described (50, 69) with minor modifications. […] The generation and purification of these fusion proteins were as described (51). A separate section of the membrane was reserved to identify SERCA1. Blots were washed extensively with overlay buffer and once with TBS, pH 7.4, plus 0.5% Tween-20 (TBST). The blots were blocked in TBST+4% non-fat dry milk for 4 h at 25° C. and probed with antibodies to MBP (overlay portion) and SERCA1 (non-overlay portion). Immunoblots were completed as described above.

## {FLAG tag}-MERSTRELCLNFTVVLITVILIWLLVRSYQY (other, rabbit, UniProt P42532 1-31, looked up, not shown: small tags and cut ends, not fully specified) [N-terminal FLAG-tagged sarcolipin (NF-SLN)]
[1]
  ΔKCa2+ relative to SERCA1 Alone: -0.37 pCa^2+ units

## B1
[2]
  binding result: no binding

## B2
[3]
  binding result: no binding (tested: 3 µg/mL)
